The subject of test [1] is Southern corn rootworm (SCR) neonatal larvae. To be noted: 20 mg/ml of diet; laboratory assay; cited from earlier work.
Test [2] deals with European corn borer (ECB) neonatal larvae. To be noted: 20 mg/ml of diet; laboratory assay; cited from earlier work.
In a further test the test system is O. surinamensis larvae. Description: Weight reduction of Oryzaephylus surinamensis larvae in treated flour. In kind it is in vivo. How it is done: Insects were cultured in cleaned, ground and sieved wholemeal flour made from organic wheat. Inhibitors from bottles of pre-weighed material were dry-mixed with the flour and residual inhibitor rinsed from bottles with a small volume of water. Rinse water was added to the flour and the mixture re-ground. The impregnated flour was transferred to a 20 mL vial and mixed thoroughly by shaking and inverting.
Adults of T. castaneum were allowed to oviposit on flour, eggs were sifted from the flour and transferred one by one with a single hair to microwell tubes containing a small amount of flour. Each level of treatment was performed in triplicated using 32 wells/replicate. Assays were performed in triplicated. Cultures were incubated at 30° C. and 55% R H.
The bioassay for this insect was outlined for T. castaneum, except incubations were conducted at 32.5° C. and 70% R H. After 8 days the insects were sieved from the flour and weighed.

Another test has as its system Lucilia cuprina larvae. The test is described as follows: Growth and survival of first instar sheep blowfly larvae on culture medium with inhibitor. It is filed as in vivo. Particulars: for Effect on larval growth, summary in words: Example 1, Table 1.2; for % Growth Inhibition / Average Larval Weight: Table 2.2; for Average Larval Weight: control 10.26.
The next test has as its system Tribolium castaneum. Description: Growth and survival of Tribolium castaneum in treated flour. It is filed as in vivo. To be noted: Day 6; all dose levels. How it is done: Insects were cultured in cleaned, ground and sieved wholemeal flour made from organic wheat. Inhibitors from bottles of pre-weighed material were dry-mixed with the flour and residual inhibitor rinsed from bottles with a small volume of water. Rinse water was added to the flour and the mixture re-ground. The impregnated flour was transferred to a 20 mL vial and mixed thoroughly by shaking and inverting. Adults of T. castaneum were allowed to oviposit on flour, eggs were sifted from the flour and transferred one by one with a single hair to microwell tubes containing a small amount of flour. Each level of treatment was performed in triplicated using 32 wells/replicate. Assays were performed in triplicated. Cultures were incubated at 30° C. and 55% R H. After 6 days each replicate of 32 wells was combined, the larvae counted and the numbers compared with numbers in the control (no inhibitor) treatment. Larvae were classified as "small" if appreciably smaller than reference larvae, or abnormal if unusual behaviour or formation were observed (eg. twisting or twisted larvae). Test inhibitors and dose rates were the same as those used in Example 4.

For the next test, the system named is Teleogryllus commodus. Description: Mortality of black field cricket nymphs on treated cabbage leaf disks. It is filed as in vivo. To be noted: after 7 days. As to the method:
(i) Stock solutions of inhibitors and control solutions were prepared as aqueous solutions or suspensions as outlined in Table 6.1.
(ii) Mortality was assessed by commencing the study with 1st instar nymphs.
(iii) Cabbage leaf disks (5×8 mm diameter disks/treatment) were smeared with 100 μl of inhibitor or control stock solutions and allowed to dry. Disks were placed singly in 40 mm petri dishes, together with a moist cotton wool pas as water supply and a piece of fluted plastic for shelter.
(iv) Ten nymphs were placed on each disc and the dishes incubated at 25° C.
(v) Mortality was assessed daily and any dead individuals removed.

A further test deals with Ctenocephalides felis. Description: Development of cat flea eggs in dried blood diets. In kind it is in vivo. Particulars: Day 16. How it is done:
Blood was collected from the jugular vein of a five year old merino sheep that had not been treated with an ectoparasitic agent for 18 months. The blood was collected into a 100 ml plastic bottle containing 0.8 ml of heparin and was maintained at 4° C. Inhibitors were pre-weighed into sterile 5 ml plastic vials and 4.5 ml of blood added. The samples were mixed, placed at -70° C. for 24 hours, then freeze-dried. The freeze-dried samples were sieved through a stainless steel 63 micron sieve, and placed into sterile 5 ml plastic vials (0.15 g/per tube). Four flea eggs were placed into each vial, and a sheet of tissue paper fastened by an elastic band was fitted to the top of each vial. The vials were incubated at 25° C. and 70-80% R H for 6 days. Vermiculite was then added to each vial to provide a supporting medium for the fleas to pupate and the tubes incubated at 25° C. and 70-80% R H, for a further 10 days. Ten control vials and three vials of each treatment were tested.
At the conclusion of the incubation period the vials were placed at -20° C. for 24 hours to kill the fleas. The number of eggs hatched and the life-cycle state was recorded.

Test [3] concerns Heliothis punctigens larvae. The test is described as follows: Growth and survival of cotton budworm larvae fed an artificial diet. To be noted: 10 days; for % Alive: control 70.0. It is filed as in vivo. How it is done: 1. The Haricot beans were cooked in a microwave for 40 minutes. 2. Agar was added to the hot water and stirred on a hot plate until almost boiling. 3. The haricot beans, agar mix, yeast and wheat germ was blended in an electric mixer for 3 minutes. 4. When the temperature has dropped to 60°C., the acids were added and mixed with the media. […] Inhibitor solutions or an equal volume of water were placed into sterilized glass tubes at designated concentrations. The artificial media was added to each tube (1.5 ml) using a sterile 10 ml syringe. First instar Heliothis punctigens larvae (1 larvae per tube) were added to the glass tubes and the tubes were capped. The tubes were incubated for 10 days at 25° C. The larvae were killed by placing the glass tubes at -70° C. for 24 hours, and then individually weighed. Percentage inhibition was calculated by comparison to control larvae.

Test [4] has as its system Bovicola ovis (Hartley strain). The test is described as follows: Survival of sheep lice on inhibitor treated wool. Particulars: of 10 lice, 24 Hours at 35° C. In kind it is in vivo.
The next test relates to L. cuprina eggs. The test is described as follows: Egg hatch of L. cuprina on liver in vitro. Particulars: 0.17 mM; 24 hours at 35° C.; control 71. In kind it is in vivo, Lucilia cuprina. As to the method:
L. cuprina eggs were placed on pieces of liver (0.9 g) which were then placed in individual wells of a 24-well tissue culture plate. Phosphate buffered saline (PBS, 0.1 ml) containing inhibitors at set concentrations were added to each well with 30 freshly laid and sterilised eggs of L. cuprina. The culture plate was then maintained in a sterile environment at 35° C. for 24 hours, after which time the percentage hatch was assessed.

In test [5] the test system is Colorado potato beetle larvae. Particulars: fed on potato leaves; cited from earlier work.

In the case of aprotinin, the Neonatal larvae killed in test [1] is 60%; in [2] it was 100%.

For `c1cnc2c(c1)ccc1cccnc12` [1,10-phenanthroline], the inhibition at 5000 µM with O. surinamensis larvae (192 h, 5 mM, 8 days, relative to untreated larvae, read-out: Percentage Growth Inhibition) stood at 100%. Further, in the test with O. surinamensis larvae (192 h, 10 mM, 8 days, relative to untreated larvae, read-out: Percentage Growth Inhibition), the inhibition at 10000 µM was 63%. The inhibition at 20000 µM in the test on O. surinamensis larvae (192 h, 20 mM, 8 days, relative to untreated larvae, read-out: Percentage Growth Inhibition) came out at 95%. Moreover, the “Growth inhibition, summary in words” value in the test on O. surinamensis larvae (text summary of Table 9.1) was “highly effective”. The “Effect on larval growth, summary in words” value in the test with Lucilia cuprina larvae is “effective growth inhibitors”. The “Larval survival” value in the test on Lucilia cuprina larvae (first instar larvae, tested at 1, 2.5, 5 mM) is “All larvae died”. Also, the Larval size classification entry in the test on Tribolium castaneum was “normal”. In addition, the “Mortality (class)” value in the test with Teleogryllus commodus (5-20 mM) was “Medium (medium 21-40%)”.

As to `CCCCC[C@H](CC(=O)NO)C(=O)N[C@H](C(=O)N1CCC[C@H]1CO)C(C)C` [Actinonin], the “Percentage of Fleas Progressing Through to Pupation” value in the test on Ctenocephalides felis (1.40 mg in 4.5 ml of blood) is recorded as 0%; in the test on Ctenocephalides felis (2.80 mg in 4.5 ml of blood), 16.8%. Also, the “Effect on larval growth, summary in words” value in the test on Lucilia cuprina larvae was “effective growth inhibitors”. For the same molecule, the inhibition at 2500 µM in the test on Lucilia cuprina larvae (Lucilia cuprina, first instar larvae, 2.5 mM) stood at 83%; in test [3] (Heliothis, 240 h, 2.5 mM, read-out: % Growth Inhibition), 97.5%. This molecule also gave an inhibition at 10000 µM with Lucilia cuprina larvae (Lucilia cuprina, first instar larvae, 10 mM) of 95%. Besides, the results for the “% Alive” value in [3] (2.5 mM) and in test [3] (5.0 mM) were 33.3% and 0.00%, respectively. Moreover, in test [3] (Heliothis, 240 h, 5.0 mM, read-out: % Growth Inhibition), the inhibition at 5000 µM worked out at 100%. In addition, in the test with Tribolium castaneum, the Larval size classification entry was “small”. In addition, in the test with Teleogryllus commodus (5 mM), the “Mortality (class)” value is recorded as “None (none/low, 10-20% mortality)”.

B1: Soybean Trypsin Inhibitor (protein, UniProt P01070 25-205, looked up)
Trypsin inhibitor A: DFVLDNEGNPLENGGTYYILSDITAFGGIRAAPTGNERCPLTVVQSRNELDKGIGTIISSPYRIRFIAEGHPLSLKFDSFAVIMLCVGIPTEWSVVEDLPEGPAVKIGENKDAMDGWFRLERVSDDEFNNYKLVFCPQQAEDDKCGDIGISIDHDDGTRRLVVSKNKPLVVQFQKLDKESL
As to B1, the “Number of Living Lice” value in [4] (Adult, 0.17 mM) turned out to be 4; in [4] (Adult, 0.34 mM), 0; in [4] (Adult, 0.68 mM), 0; in [4] (instar 1, 0.17 mM), 1; in [4] (instar 1, 0.34 mM), 1; in [4] (instar 1, 0.68 mM) it was 0. Also, the “Number of Living Lice” value in test [4] (instar 2, 0.17 mM) was 2; in test [4] (instar 2, 0.34 mM), 0; in test [4] (instar 2, 0.68 mM), 0; in test [4] (instar 3, 0.17 mM), 2; in test [4] (instar 3, 0.34 mM), 4; in test [4] (instar 3, 0.68 mM) it was 0. Moreover, the “Percentage Growth Inhibition” value in the test with O. surinamensis larvae (0.17 mM, 8 days, relative to untreated larvae) was determined as 12%; in the test with O. surinamensis larvae (0.34 mM, 8 days, relative to untreated larvae) it was 30%; in the test on O. surinamensis larvae (0.68 mM, 8 days, relative to untreated larvae), 46%. Further, the “Percentage of Fleas Progressing Through to Pupation” value in the test on Ctenocephalides felis (5.0 mg in 4.5 ml of blood) and with Ctenocephalides felis (10.0 mg in 4.5 ml of blood) was 0% throughout. The “% Growth Inhibition” value was -22.5% with Lucilia cuprina larvae (0.0425 mM); 28.5% in the test with Lucilia cuprina larvae (0.085 mM); 45.1% with Lucilia cuprina larvae (0.170 mM); 69.3% in the test on Lucilia cuprina larvae (0.340 mM); 70.6% in the test with Lucilia cuprina larvae (0.680 mM). Moreover, the “Average Larval Weight” value in the test on Lucilia cuprina larvae (0.0425 mM) is given as 12.57 10^-4 g; in the test on Lucilia cuprina larvae (0.085 mM), 7.34 10^-4 g; with Lucilia cuprina larvae (0.170 mM), 5.63 10^-4 g; in the test with Lucilia cuprina larvae (0.340 mM), 3.15 10^-4 g; with Lucilia cuprina larvae (0.680 mM), 3.02 10^-4 g. Besides, the “Growth Inhibition” value in the test on Lucilia cuprina larvae (first instar larvae, 0.17 mM) was 76%; in the test with Lucilia cuprina larvae (first instar larvae, 0.40 mM) it was 64%. For the same molecule, in the test on L. cuprina eggs, the “% Hatch” value turned out to be 17%. Also, the “Growth retardation” value in test [5] was “ineffective”. In the test with Teleogryllus commodus (0.17-0.68 mM), the “Mortality (class)” value was “None (none/low, 10-20% mortality)”.

Source of the values: patent US5985273A, “Biological control of insects” (priority 1994, dated 1999).
